According to patent publication US20200299331A1:
Bridge positions count the residues as written; N and C are the ends.

Target: TNF receptor (human)
Test: cell-based or functional assay

B1: AP301 peptide (peptide)
peptide: H-CGQRETPEGAEAKPWYC-OH
modifications: bridge 1-17; also: cyclized via the Cys residues, disulfide given as preferred, bond type of batch not given here
< 0.5 pg/mL: concentration of IL-6 (pg/ml, n = 5) released from fresh human whole blood, AP301 at 1 ng/ml | concentration of IL-6 (pg/ml, n = 5) released from fresh human whole blood, AP301 at 3 ng/ml | concentration of IL-6 (pg/ml, n = 5) released from fresh human whole blood, AP301 at 1 mg/ml as printed | concentration of IL-6 (pg/ml, n = 5) released from fresh human whole blood, AP301 at 10 mg/ml as printed
